The source of these data is paper PMC212687.

In the series the target is RAG1;RAG2;HMG (HMG-1/2) (;;) (UniProt P15919+P21784). Description: EMSA. Particulars: Standard gel shift, conditions as in Fugmann et al. 2000b (not given in the material), three experiments. In general terms: A gel shift assay detects complexes by their altered migration in electrophoresis.

For “GATCTGGCCTGGTCTGCACAACCCTGTGACTCCCAACAAAAACCTGCACTCGAGCGGAG (double strand) [N (Jβ2.6 with consensus nonamer)]”, the binding signal (relative to Jβ2.2) (up to level of Jβ2.2) came out at 1.
Regarding “GATCTGGCCTGGTCTGCACAACCCTGTGACTCCCAAGAGAAACCTGCACTCGAGCGGAG (double strand) [Jβ2.6 12-RSS]”, the binding signal (relative to Jβ2.2) (about 2-fold reduced) came out at 0.5.
For the sequence “GATCTGGCCTGGTCTGCACAGTGCAGATCTAGGAGACAAAAACCTGCACTCGAGCGGAG (double strand) [H-Sac-N]”, the binding signal (relative to H-Sc-N) (about 3-fold reduced vs H-Sc-N) is 0.33.
For “GATCTGGCCTGGTTTGCACAGTCCTGGAAATGCTGGCACAAACCTGCACTCGAGCGGAG (double strand) [Jβ2.2 12-RSS]”, the binding signal (relative to Jβ2.2) turned out to be 1.
